The target in the assay is Drosophila melanogaster TRPA1, dTRPA1-A isoform (Drosophila melanogaster). Description: cryo-EM structure; purified dTRPA1-A in 25 mM HEPES pH 7.4, 150 mM NaCl, 0.02% GDN; grids prepared at 8 °C; two conformations (state-1, 3.2 Å; state-2, 3.0 Å) from the same sample.

As to “Drosophila melanogaster TRPA1, dTRPA1-A isoform (natural protein)”, the stoichiometry N (in general, the number of molecules, sites or subunits per partner or assembly) amounted to 4.

Values taken from paper PMC10073219.
